Laboratory results from publication PMC3582359 (Molecular cell, 2012).

Experiments:
[1] = target: GFP-250, a chimera of GFP with the cytosolic protein p115; assay: co-IP
[2] = target: recombinant GRP78 (19-654) Cys41 to Ala mutant (human, UniProt P11021 19-654, Cys41 (Cys to Ala)); assay: cross-linking
[3] = target: recombinant GRP78 (19-654) Cys420 to Ala mutant (human, UniProt P11021 19-654, Cys420 (Cys to Ala)); assay: cross-linking

Chain of GRP78 (glucose-regulated protein 78), endogenous in mouse embryonic fibroblasts (P20029 20-655): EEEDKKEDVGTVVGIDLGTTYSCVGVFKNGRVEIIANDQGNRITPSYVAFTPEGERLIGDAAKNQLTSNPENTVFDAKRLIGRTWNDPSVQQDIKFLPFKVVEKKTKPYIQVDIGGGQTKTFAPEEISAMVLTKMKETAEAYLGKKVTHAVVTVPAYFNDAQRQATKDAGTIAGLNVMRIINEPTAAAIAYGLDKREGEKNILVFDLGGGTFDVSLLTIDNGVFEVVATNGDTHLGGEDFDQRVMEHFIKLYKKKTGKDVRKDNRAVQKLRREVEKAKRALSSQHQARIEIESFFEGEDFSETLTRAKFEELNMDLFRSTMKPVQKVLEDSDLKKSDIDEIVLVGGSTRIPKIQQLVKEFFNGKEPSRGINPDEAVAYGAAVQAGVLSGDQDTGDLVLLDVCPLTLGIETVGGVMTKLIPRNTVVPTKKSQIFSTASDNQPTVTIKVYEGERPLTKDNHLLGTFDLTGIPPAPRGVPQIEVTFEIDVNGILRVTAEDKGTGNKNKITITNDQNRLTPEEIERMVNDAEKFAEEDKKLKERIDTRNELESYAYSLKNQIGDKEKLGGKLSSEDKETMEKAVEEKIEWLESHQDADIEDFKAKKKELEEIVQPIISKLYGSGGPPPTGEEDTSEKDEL

Row | fold more GFP-250 interacting with GRP78 in WT MEFs than in NPGPx-/- MEFs [1] | binding result [2] | binding result [3] | Molecule
1 | 3 fold | – | – | GRP78 (glucose-regulated protein 78), endogenous in mouse embryonic fibroblasts (from UniProt P20029 20-655) (natural protein)
2 | – | binds | binds | oxidized recombinant NPGPx (19-187) (natural protein, human, UniProt Q96SL4 19-187, looked up, single disulfide bond between Cys57 and Cys86) AQQEQDFYDFKAVNIRGKLVSLEKYRGSVSLVVNVASECGFTDQHYRALQQLQRDLGPHHFNVLAFPCNQFGQQEPDSNKEIESFARRTYSVSFPMFSKIAVTGTGAHPAFKYLAQTSGKEPTWNFWKYLVAPDGKVVGAWDPTVSVEEVRPQITALVRKLILLKREDL
